# Laboratory results from patent US20100048604A1, “Ligands for Aldoketoreductases” (priority 2004, published 2010).
# T1: Thermoanaerobium brockii alcohol dehydrogenase (TBAD) (Thermoanaerobacter brockii, UniProt P14941)
# T1 construct: purchased Sigma (St. Louis, Mo.) Lot Number 033K4093 (catalogue number not given)
# T1 sequence (P14941 1-352): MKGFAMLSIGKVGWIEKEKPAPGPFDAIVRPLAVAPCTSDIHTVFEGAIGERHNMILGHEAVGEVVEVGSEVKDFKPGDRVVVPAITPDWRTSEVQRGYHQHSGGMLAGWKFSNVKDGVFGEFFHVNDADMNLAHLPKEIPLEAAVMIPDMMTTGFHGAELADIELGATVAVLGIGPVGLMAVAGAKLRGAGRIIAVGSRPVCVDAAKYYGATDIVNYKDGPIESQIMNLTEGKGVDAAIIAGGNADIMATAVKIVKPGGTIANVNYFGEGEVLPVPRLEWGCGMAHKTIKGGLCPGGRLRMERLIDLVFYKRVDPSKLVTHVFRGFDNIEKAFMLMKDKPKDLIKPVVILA
# B1: AKR1C1 (Homo sapiens) (protein)
# chain: MDSKYQCVKLNDGHFMPVLGFGTYAPAEVPKSKALEATKLAIEAGFRHIDSAHLYNNEEQVGLAIRSKIADGSVKREDIFYTSKLWCNSHRPELVRPALERSLKNLQLDYVDLYLIHFPVSVKPGEEVIPKDENGKILFDTVDLCATWEAVEKCKDAGLAKSIGVSNFNRRQLEMILNKPGLKYKPVCNQVECHPYFNQRKLLDFCKSKDIVLVAYSALGSHREEPWVDPNSPVLLEDPVLCALAKKHKRTPALIALRYQLQRGVVVLAKSYNEQRIRQNVQVFEFQLTSEEMKAIDGLNRNVRYLTLDIFAGPPNYPFSDEY
# notes: gift of the Penning lab (University of Pennsylvania School of Medicine)
# Key:
# AKR1C1-AKR1C4 = experiment: Substrate tolerance and selectivity across the four human AKR1C isozymes; assay type: biochemical; conditions: AKR1C1-AKR1C4, purified enzymes, NADPH
# Excerpt: (§1) AKR1C2 and AKR1C3 Selective Probes: Probes (5a-5i) were examined as substrates for the four purified human HSD isozymes (AKR1C1-AKR1C4) under standard assay conditions [catalytic quantities of enzyme, an excess of cofactor (NADPH)]. The initial reaction rates were used to derive standard kinetic parameters (kcat and Km, Materials and Methods).
# (§2) Substrate tolerance of AKR1Cs: Isozyme Activity with 5a-5i: Activity of the second generation of fluorogenic substrates with the AKR1C isozymes was determined as follows. To a STARNA semi-micro fluorimeter cell (with 4 polished windows) was added 100 μL of 1 M potassium phosphate buffer (pH 6), 840 μL doubly deionized water, and 20 μL of 12.5 mM NADPH. After mixing the aqueous components thoroughly, 20 μL of acetonitrile was added as a cosolvent and mixed well. 20 μL of 2.5 mM second generation fluorogenic ketone in acetonitrile (5a-5i) was then added and mixed. 4 μL of undiluted AKR1C (provided generously by the Penning lab at concentrations of 2.5 mg/mL) were then added to the cuvette for a total of 10 μg purified enzyme in the 1 mL assay volume. Fluorescence arising from the respective alcohol reduction product was then monitored over the course of 5-10 minutes.
# Binding constant and catalytic rates (Km and kcat) of the second generation of fluorogenic substrates was determined as follows. To a STARNA semi-micro fluorometer cell (with 4 polished windows) was added 100 μL of 1 M potassium phosphate buffer (pH 6), 840 μL doubly deionized water, and 20 AL of 12.5 mM NADPH. After mixing the aqueous components thoroughly, 20 μL of acetonitrile was added as a cosolvent and mixed well. […] Fluorescence arising from the respective alcohol reduction product was then monitored over the course of 3 minutes (Excitation and emission band pass slits both at 4 nm, lamp 700 V, λexc 410 nm, λem 510). The rate of product formation, expressed in units of nanomoles per minute, were calculated according to previously published procedures (Wierzchowski, J.; Dafeldecker, W. P.; Holmquist, B.; Vallee, B. L. Anal. Biochem. 1989, 178, 57-62): […]
# [1] = target: T2, horse liver alcohol dehydrogenase (HLAD) (Equus caballus, UniProt P00327); experiment: Enzymatic screening of probes 1-7 against a panel of oxidoreductases; assay type: biochemical; conditions: 12 hour incubation, 30-50 μM substrate, pH 7, 250 μM NAD(P)H
# T2 construct: purchased Sigma (St. Louis, Mo.) Lot Number 51K7520 (catalogue number not given)
# Experimental: (§3) FIG. 4. Screening of probes 1-7 against a panel of oxidoreductases Percentage fluorescence increase after 12 hour incubation of 30-50 μM substrate, 100 mM phosphate buffer (pH 7), 250 μM NAD(P)H, and 100 nM enzyme. Substrates 1, 2, 3, and 4 monitored at λexc=340 nm, λem=440 nm. Substrates 5, 6, and 7 monitored at λexc=440 nm, λem=510 nm. 3HSD, 3α-hydroxysteroid dehydrogenase (PT, Pseudomonas testosteroni), HLAD, horse liver alcohol dehydrogenase, TBAD, Thermoanaerobium brockii alcohol dehydrogenase, BS 12HSD, Bacillus sp. 12α-hydroxysteroid dehydrogenase, ABAD, amyloid-β binding alcohol dehydrogenase (human), GDH, glycerol dehydrogenase, YADH, yeast alcohol dehydrogenase, LDH, lactate dehydrogenase.
# (§4) Probes 1-7 (see FIG. 3) were subsequently tested against a collection of dehydrogenases in the presence of NAD(P)H; the extent of reduction was assessed by the measurement of fluorescence intensity at the emission maximum of each probe (FIG. 4). This assay included enzymes from two major oxidoreductase superfamilies, the short chain alcohol dehydrogenases (SDR) and the aldo-keto reductases (AKR), ranging from bacterial to mammalian and human enzymes.
# (§5) Horse Liver alcohol dehydrogenase (Lot Number 51K7520), Thermoanaerobium brockii NADP^+ dependent alcohol dehydrogenase (Lot Number 033K4093), Pseudomonas testosteroni 3α-hydroxysteroid dehydrogenase (Lot Number 053K8624), and Bacillus sphaericus 12α-hydroxysteroid dehydrogenase (Lot Number 70K16621) were purchased from Sigma (St. Louis, Mo.). Yeast alcohol dehydrogenase (Lot Number 93122920), glycerol dehydrogenase (Lot Number 92110122), (D)-lactate dehydrogenase (Lot Number 92419236), (L)-lactate dehydrogenase (Lot Number 92801821), NAD^+, NADP^+, NADH, and NADPH were purchased from Roche. Enzyme activity was confirmed by compliance to supplier's quality control assays prior to usage. Rat and human 3α-hydroxysteroid dehydrogenases were provided by Professor Trevor Penning (University of Pennsylvania School of Medicine) and human amyloid-β peptide binding alcohol dehydrogenase was supplied by Professor Shi Du Yan (Columbia University School for Physicians and Surgeons).
# (§6) Enzymatic assays were performed in triplicate on selected fluorogenic substrates according to the following protocol. To each well of a FALCON 96-well black flat bottom plate was added (1) 40 μL of 500 mM potassium phosphate buffer pH 7.0, (2) 113 μL of double deionized water, (3) 25 μL of 2 mM NADH (except for Pseudomonas testosteroni 3α-hydroxysteroid dehydrogenase, rat 3α-hydroxysteroid dehydrogenase, and Thermoanaerobium brockii NADP^+ dependent alcohol dehydrogenase, in which cases 2 mM of NADPH was used), (4) 2 μL of a 3-5 mM solution of substrate in DMSO, and (5) 20 μL of a 40-50 μg/mL solution of enzyme. Reaction volumes were mixed thoroughly after addition of cofactor, substrate, and enzyme and allowed to react 12 hours at 25° C. Scanning of the 96-well plate was performed by the MicroMax 384 connected to a Jobin Yvon Fluorolog through F-3000 fiber optic cables.
# (§7) Initial Screening with Fluorogenic Substrates: Screening of the first fluorogenic substrates for enzymatic activity has been described above. In short, 200 μL enzymatic assay volumes containing 100 mM potassium phosphate buffer (pH 7), 250 μM NAD(P)H cofactor, and 30-50 μM of ketones (1-7) were incubated for 12 hours on a black FALCON 96-well plate. Formation of the alcohol reduction product was determined by reading the fluorescence arising from excitation at the corresponding alcohol at either 340 nm (27-30) or 440 nm (31-33).
# [2] = target: T1, Thermoanaerobium brockii alcohol dehydrogenase (TBAD); experiment: as above; assay type: biochemical; conditions: 12 hour incubation, 30-50 μM substrate, pH 7, 250 μM NAD(P)H
# Experimental: as §3, §4, §5, §6, §7
# [3] = substrate: O=C(c1ccccc1)c1cc(=O)oc2c3c4c(cc12)CCCN4CCC3; experiment: Steady state kinetic parameters of fluorogenic substrates with purified AKR1C isozymes; assay type: biochemical, human; conditions: other: isozyme 1C1, potassium phosphate buffer pH 6, NADPH, fluorimetric
# Excerpt: as §1, §2
# (§8) Binding constant and catalytic rates (Km and kcat) of the second generation of fluorogenic substrates was determined as follows. To a STARNA semi-micro fluorometer cell (with 4 polished windows) was added 100 μL of 1 M potassium phosphate buffer (pH 6), 840 μL doubly deionized water, and 20 AL of 12.5 mM NADPH. After mixing the aqueous components thoroughly, 20 μL of acetonitrile was added as a cosolvent and mixed well. 20 μL of the second generation fluorogenic ketone (5a-5i) was then added and mixed to achieve assay concentrations of 5Km to Km/5. To initiate the reduction, 2 or 4 μL of diluted AKR1C (1:2 to 1:100, depending on the kinetics of a particular isozyme's reduction of a substrate) was then added to the cuvette. Fluorescence arising from the respective alcohol reduction product was then monitored over the course of 3 minutes (Excitation and emission band pass slits both at 4 nm, lamp 700 V, λexc 410 nm, λem 510). The rate of product formation, expressed in units of nanomoles per minute, were calculated according to previously published procedures (Wierzchowski, J.; Dafeldecker, W. P.; Holmquist, B.; Vallee, B. L. Anal. Biochem. 1989, 178, 57-62):
# (§9) initial rate=[nst×(Ft−F0)/(Fst)]/t (1)
# (§10) where Ft and F0 represent the fluorescence at times t and 0 minutes, nst is the nanomoles of product in a known concentration of product, and Fst is the fluorescence resulting from nst of product. Kinetic parameters were approximated by GraFit (Erithacus Software, Surrey, UK) nonlinear regression analysis program to fit the untransformed data to a hyperbolic function as originally described (Wierzchowski, J.; Dafeldecker, W. P.; Holmquist, B.; Vallee, B. L. Anal. Biochem. 1989, 178, 57-62). Reported enzymatic kinetic parameters are the average of three independent determinations from three different preparations of substrate and enzyme.
# [4] = substrate: O=C1CCc2c1c1cc3c4c(c1oc2=O)CCCN4CCC3; experiment: as above; assay type: biochemical, human; conditions: other: isozyme 1C1, potassium phosphate buffer pH 6, NADPH, fluorimetric
# Excerpt: as §1, §2, §8, §9, §10
# [5] = substrate: CC(=O)c1cc(=O)oc2c3c4c(cc12)CCCN4CCC3; experiment: as above; assay type: biochemical, human; conditions: other: isozyme 1C1, potassium phosphate buffer pH 6, NADPH, fluorimetric
# Excerpt: as §1, §2, §8, §9, §10
# [6] = substrate: CC(=O)c1cc(=O)oc2c3c(ccc12)NCCC3; experiment: as above; assay type: biochemical, human; conditions: other: isozyme 1C1, potassium phosphate buffer pH 6, NADPH, fluorimetric
# Excerpt: as §1, §2, §8, §9, §10
# [7] = substrate: CC(=O)c1cc(=O)oc2cc(N(C)C)ccc12; experiment: as above; assay type: biochemical, human; conditions: other: isozyme 1C1, potassium phosphate buffer pH 6, NADPH, fluorimetric
# Excerpt: as §1, §2, §8, §9, §10
# T2 sequence (P00327 2-375 limits assumed): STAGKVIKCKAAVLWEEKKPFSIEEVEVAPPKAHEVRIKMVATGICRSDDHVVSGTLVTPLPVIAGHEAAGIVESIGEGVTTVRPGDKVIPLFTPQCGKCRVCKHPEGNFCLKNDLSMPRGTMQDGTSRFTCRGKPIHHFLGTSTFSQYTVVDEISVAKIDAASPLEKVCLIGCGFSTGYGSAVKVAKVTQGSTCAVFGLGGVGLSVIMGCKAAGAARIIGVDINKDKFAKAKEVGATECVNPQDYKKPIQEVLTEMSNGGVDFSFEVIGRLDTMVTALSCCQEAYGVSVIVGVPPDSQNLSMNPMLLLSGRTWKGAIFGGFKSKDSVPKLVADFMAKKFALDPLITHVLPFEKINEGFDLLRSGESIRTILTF
molecule,measurement,setting,value
"CC(=O)c1c(Br)c(=O)oc2c3c4c(cc12)CCCN4CCC3 [5e, 8-Acetyl-9-bromo-2,3,5,6-tetrahydro-1H,4H-11-oxa-3a-aza-benzo[de]anthracen-10-one]",acceptance as substrate by the four human isozymes,AKR1C1-AKR1C4,not accepted as substrates by any of the tested 3a-HSD enzymes
"CC(=O)c1c(-c2ccccc2)c(=O)oc2c3c4c(cc12)CCCN4CCC3 [5f, 8-Acetyl-9-phenyl-2,3,5,6-tetrahydro-1H,4H-11-oxa-3a-aza-benzo[de]anthracen-10-one]",acceptance as substrate by the four human isozymes,AKR1C1-AKR1C4,not accepted as substrates by any of the tested 3a-HSD enzymes
"COc1ccc2cc(C#CC(C)=O)c(=O)oc2c1 [compound 4, 7-Methoxy-3-(3-oxo-but-1-ynyl)-coumarin]",reduction of probe (fluorescence increase),[1],catalyzed reduction
same,reduction of probe (fluorescence increase),[2],catalyzed reduction
"CC(=O)C#Cc1cc2cc3c4c(c2oc1=O)CCCN4CCC3 [compound 7, 9-(3-Oxo-but-1-ynyl)-2,3,5,6-tetrahydro-1H,4H-11-oxa-3a-aza-benzo[de]anthracen-10-one]",reduction of probe (fluorescence increase),[1],catalyzed reduction
same,reduction of probe (fluorescence increase),[2],catalyzed reduction
B1,Km,[3],5.5 ± 0.7 3.0 ± 0.2 0.051 ± 0.005 6.2 ± 0.7 μM
same,kcat,[3],0.025 s⁻¹
same,kcat/Km,[3],0.27 7.8 106 0.10 min^−1 μM^−1
same,Km,[4],4.0 ± 0.6 4.5 ± 0.6 0.13 μM
same,kcat,[4],1.6 0.40 7.2 no activity
same,kcat/Km,[4],0.39 0.08 56 min^−1 μM^−1
same,Km,[5],24.4 ± 2.3 7.3 ± 0.4 1.1 ± 0.1 20.6 ± 1.9 μM
same,kcat,[5],0.0183 s⁻¹
same,kcat/Km,[5],0.046 2.1 6.9 0.020 min^−1 μM^−1
same,Km,[6],35.3 ± 2.9 4.8 ± 0.3 8.3 ± 0.9 40.2 ± 3.4 μM
same,kcat,[6],0.11 s⁻¹
same,kcat/Km,[6],0.19 6.0 0.84 0.036 min^−1 μM^−1
same,Km,[7],21.0 ± 1.3 7.2 ± 0.6 4.3 ± 0.3 14.8 ± 0.9 μM
same,kcat,[7],0.0333 s⁻¹
same,kcat/Km,[7],0.10 3.0 2.1 0.14 min^−1 μM^−1
